Sequences and labels used below:
B1: Mint1-CID (residues 338-397) [not stated] / CASK-CaMK (residues 1-337) [not stated] (parent)
chain 1: QRYSKEKRDAISLAIKDIKEAIEEVKTRTIRSPYTPDEPKEPIWVMRQDISPTRDCDDQR
chain 2: MADDDVLFEDVYELCEVIGKGPFSVVRRCINRETGQQFAVKIVDVAKFTSSPGLSTEDLKREASICHMLKHPHIVELLETYSSDGMLYMVFEFMDGADLCFEIVKRADAGFVYSEAVASHYMRQILEALRYCHDNNIIHRDVKPHCVLLASKENSAPVKLGGFGVAIQLGESGLVAGGRVGTPHFMAPEVVKREPYGKPVDVWGCGVILFILLSGCLPFYGTKERLFEGIIKGKYKMNPRQWSHISESAKDLVRRMLMLDPAERITVYEALNHPWLKERDRYAYKIHLPETVEQLRKFNARRKLKGAVLAAVSSHKFNSFYGDPPEELPDFSEDPTS

As a reminder, the Kd is the constant that tells how readily two partners part at equilibrium.

In the experiment the parent is B1. Briefly: ITC. Conditions: with CASK-CaMK (residues 1-337); Mint1-CID mutant titrated into CASK(1-337).
Consider chain 1 QRYSKEKRDAISLAAKDAKEAAEEVKTRTIRSPYTPDEPKEPIWVMRQDISPTRDCDDQR [chain 1 I15A I18A I22A], for which the Kd stood at 270 nM.
